Key:
[1] = molecular target: T1, human PD-L2 (human, UniProt Q9BQ51 20-273); test: flow cytometry on 293T cells transfected with human PD-L2, anti-rabbit Fc detection
T1 construct: whole, on cells; also called CD273; B7-DC
T1 sequence (looked up): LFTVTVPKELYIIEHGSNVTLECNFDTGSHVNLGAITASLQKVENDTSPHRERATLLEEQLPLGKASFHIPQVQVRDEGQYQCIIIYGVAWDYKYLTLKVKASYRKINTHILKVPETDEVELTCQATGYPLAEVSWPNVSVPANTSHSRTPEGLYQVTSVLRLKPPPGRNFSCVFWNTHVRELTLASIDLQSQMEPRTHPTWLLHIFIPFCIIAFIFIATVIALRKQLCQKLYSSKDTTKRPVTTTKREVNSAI

[2] = molecular target: T2, human PD-L1 (human, UniProt Q9NZQ7 19-290); test: flow cytometry on 293T cells transfected with human PD-L1, anti-rabbit Fc detection
T2 construct: whole, on cells; also called CD274; B7-H1
T2 sequence (Q9NZQ7 19-290): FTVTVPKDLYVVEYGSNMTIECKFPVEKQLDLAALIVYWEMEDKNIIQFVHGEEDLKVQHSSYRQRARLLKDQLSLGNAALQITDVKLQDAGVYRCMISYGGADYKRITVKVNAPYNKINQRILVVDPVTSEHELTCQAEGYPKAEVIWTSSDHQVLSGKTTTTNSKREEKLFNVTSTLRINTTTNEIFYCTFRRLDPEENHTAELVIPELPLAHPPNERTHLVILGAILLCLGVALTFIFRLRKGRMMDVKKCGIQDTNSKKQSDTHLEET

B1: sΔ42PD1Fc (soluble Δ42PD1 fused with the rabbit IgG Fc domain) (Fc fusion)
chain: LALLVVTEGDNATFTCSFSNTSESFVLNWYRMSPSNQTDKLAAFPEDRSQPGQDCRFRVTQLPNGRDFHMSVVRARRNDSGTYLCGAISLAPKAQIKESLRAELRVTERRAEVPTAHPSPSPRPAGQLEATNTKVDKTVAPSTCSKPMCPPPELLGGPSVFIFPPKPKDTLMISRTPEVTCVVVDVSQDDPEVQFTWYINNEQVRTARPPLREQQFNSTIRVVSTLPIAHQDWLRGKEFKCKVHNKALPAPIEKTISKARGQPLEPKVYTMGPPREELSSRSVSLTCMINGFYPSDISVEWEKNGKAEDNYKTTPTVLDSDGSYFLYSKLSVPTSEWQRGDVFTCSVMHEALHNHYTQKSISHSPGK
B1: no binding (tested: 0.5, 2, 5 and 20 µg/ml) [1]; no binding (tested: 0.5, 2, 5 and 20 µg/ml) [2].

From patent US20180312564A1 (VERSITECH, published 2018)
